The nature of this data set: label from the status in PepcDB records.

Among the data in a protein production outcome set (Wang et al. 2014) are protein production values, retold here.

On to “MAGFSSLIPRTLLKRAVSSATRNLTAPLASISAARNLFIGGGCDENYGEPGVFSHSNGIRKYNTVGNAGALTGPFHHLLGVNQTNKPAFLRVQSMSYQFVADSHSSPKRIVKNEDEEDFSDSSKKGNAENPRKHQIGENIPKKDKIKFLVNTLLDIEDNKEAVYGALDAWVAWERNFPIASLKIVIASLEKEHQWHRMVQVIKWILSKGQGNTMGTYGQLIRALDMDRRAEEAHVIWRKKVGNDLHSVPWQLCLQMMRIYFRNNMLQELVKLFKDLESYDRKPPDKHIVQTVADAYELLGMLDEKERVVTKYSHLLLGTPSDDKPSRSSRKKKKPELRIPEATTEGAVDAAKAEIQEERKENLDNHQESEAATEKQFEHGA”, for which the protein production result was “failed”.

Regarding “MAGGVDGPIGIPFPDHSSDILSGLNEQRTQGLLCDVVILVEGREFPTHRSVLAACSQYFKKLFTSGAVVDQQNVYEIDFVSAEALTALMDFAYTATLTVSTANVGDILSAARLLEIPAVSHVCADLLDRQIL”, the protein production entry is “failed”.

On to “MAGHSHWAQIKHKKAKVDAQRGKLFSKLIREIIVATRLGGPNPEFNPRLRTAIEQAKKANMPWENIERAIKKGAGELEGEQFEEVIYEGYAPGGVAVMVLATTDNRNRTTSEVRHVFTKHGGNLGASGCVSYLFERKGYIEVPAKEVSEEELLEKAIEVGAEDVQPGEEVHIIYTVPEELYEVKENLEKLGVPIEKAQITWKPISTVQINDEETAQKVIKLLNALEELDDVQQVIANFEIPEEILQKVG”, for which the protein production entry is “not failed”. “MAGIKVFGHPASTSTRRVLIALHEKNLDFELVHVELKDGEHKKEPFLSRNPFGQVPAFEDGDLKLFESRAITQYIAHRYENQGTNLLPADSKNIAQYAIMSIGIQVEAHQFDPVASKLAWEQVFKFNYGLNTDQAVVAEEEAKLAKVLDVYEARLKEFKYLAGETFTLTDLHHIPVIQYLLGTPTKKLFTERPRVNEWVAEITKRPASEKVL”: the protein production result is on record as “failed”. For “MAGQSDRKAALLDQVARVGKALANGRRLQILDLLAQGERAVEAIATATGMNLTTASANLQALKSGGLVEARREGTRQYYRIAGEDVARLFALVQVVADEHLADVAVAAADVLGSPEDAITRAELLRRREAGEVTLVDVRPHEEYQAGHIPGAINIPIAELADRLAELAGDRDIVAYCRGAYCVMAPDAVRIARDAGREVKRLDDGMLEWRLAGLPVDEGAPVGHGD”, the protein production entry is given as “failed”. For the sequence “MAGRRRWSTEQILDAAAELLLAGDAETFSVRKLAASLGTDSSSLYRHFRNKTELLRAVADRILLSAMDGYRPEGDWKQRLTAVALRLRESFGQQPQLAAVWGRHGSGGTGSRLMMEEVLQALRASGLPDDEIPARYHRLVILISSLITAEGGFGAVGAQEHEQGMEQFRVAVLGADPERFPALSHFAREIRPLGADRGAAFEEILAAHLAHLEAAAP”, the protein production result was “not failed”.

Turning to “MAGTTQGAKTLYDKLWDDHLVSQRDDGSCLIYIDRHLLHEVTSPQAFEGLQLAGRQPWRLNANIATPDHNVPTSKKEREQGIAGIEDDTSRIQVQTLDDNCKTFNIVEFGINDIRQGIVHVVGPEQGLTLPGMTVVCGDSHTATHGAFGCLAHGIGTSEVEHVLATQCLIQKKSKNMLIRVDGQLGKGVTPKDVVLAIIGKIGTAGGTGYAIEFGGQVFRDMSIEGRMTVCNMAIEAGARVGMVAVDDKTIEYVQSRHYAPKGEQWDQAVAYWNTLHSDDDAVFDEVVVLNGAEIEPQVSWGTSPEMVIPVSQAVPTLEQAKDDVQRNDWTRAYQYMGLTAGQALADIQLDRVFIGSCTNSRIEDIRAAAEVVKGRKVASSIKQAMIVPGSGLVKQQAEQEGLDQVFLEAGFEWREPGCSMCLAMNSDKLQPGEHCASTSNRNFEGRQGNGGRTHLVSPAMAAAAAIAGHFVDVRSF”, the protein production entry is “failed”. “MAGVCGSKLMMARLVGMPDLFSDSGWGSGELPRALRPGLVHLPRWMGLDQQFAVVQQCREIARSVAGTPLAMHRQQWASGTMSAYLMSLGLHWEYRTYQYVSQWGGVAVPPIPVEFSALAHEVLRAAAGVDDSLAAWVDSYRIDAALVNYYPPGAGMGMHQDAFEDSRAPVVSLSIGDSAVFRAGNGVNRQRPWQDVVLGSGDAVVFGGPSRDMFHSVVRLHAGTAPTRCGVSQGRINLTFRQVKL”: the protein production result was “failed”. The same measure for “MAGYKPVAIQTYPVLGEKITQDTLYWNNYKTPVQIKEFGAVSKVDFSPQLPYNYAVTASSRIHIYGRYSQEPVKTFSRFKDTAYCATFRQDGQLLVAGSEDGVVQLFDINGRAPLRQFEGHTKAVHTVDFTADNYHVVSGADDYTVKLWDIPNSKEILTFKEHSDYVRCGCASKLNPDLFVTGSYDHTVKIFDARTNKNVLCVEHGQPVESVLLFPSGGLLVSAGGRYVKVWDMLKGGQLLVSLKNHHKTVTCLCLSSSGQRLLSGSLDRKVKVYSTTSYKVVHSFDYAASILSLALSHQDETIVVGMTNGILSVKHRKSEAKKTSLPRRRRPAYRTFIKGKNYLKQRDDIMVSRPAKKHLEGYDKDLKSFRVSQALDRVLEPKCVIRTPEVTVSIIKELTRRGVLANALAGRDEKEVTRVLNFLIRNLSQPRFAPVLINAAEIIIDIYLPVIGQSSVVDKKFIVLQELVEKEIDYQRELLETLGMMDMLFATMTRNDSDPVPEHVPAELPEEKTESPTQPSDTDKNS”: “failed”. Turning to “MAHACVSTSASSLRFTAGFVSASPNGSSFDSPKLSLPFEPLRSRKTNKLVSDRKNWKNSTPKAVYSGNLWTPEIPSPQGVWSIRDDLQVPSSPYFPAYAQGQGPPPMVQERFQSIISQLFQYRIIRCGGAVDDDMANIIVAQLLYLDAVDPTKDIVMYVNSPGGSVTAGMAIFDTMRHIRPDVSTVCVGLAASMGAFLLSAGTKGKRYSLPNSRIMIHQPLGGAQGGQTDIDIQANEMLHHKANLNGYLAYHTGQSLEKINQDTDRDFFMSAKEAKEYGLIDGVIMNPLKALQPLAAA”, the protein production entry is listed as “failed”. Take “MAHGVNIYNVYSISIIALLASSFLLYAQEAKGLENAMLFLSIIFPYAFYLNGHILLYLVLPAYLIVTSSVTFHYYIYELIPTLIYYFGILPKFINYNVRLMTILWES”: the protein production entry is on record as “failed”.

Turning to “MAHHHHHHMGGPPTIEELKREKIIPHVFPDENVDLTVDMYISFKSGKEVNHGNILDLAGTGSVPRNIKFSEEPPEDYCYILFMIDPDFPSRRRPDGRDYVHWAVSGIKSKELVKGTDKNCITLLPYVGPSIKKGTGLHRISFILSLVKEENKGNVTGVPLYRGEHYITRVKFNNCQSAYNVIQMNDMKIVGFNWCQIEA”, the protein production result was “not failed”. The same measure for “MAHPFLRTIFEVVITLYMLHNLYKVLGDDEMDLEEMSSFFNKRVNEYEEHMMNNVGGANQYYIETAKLIPRGKEINILDLGCGTGLELDEIFKINNTVRVTGIDLAENMLRKIKEKHKDKLDRLTLIVGDYFSCDIGEKVFDAALSVETLHHFNHEQKIKLYKKIVRSLKDNGVYIEADYMAPNQDYEDHCFNENKRIRLELGIKDGFYHYDTPCTVENQIKMLYKSGFKSVEKVFKAENTVILLAKK”: “failed”; for “MAHYKAADSKREQFRRYLEKSGVLDTLTKVLVALYEEPEKPNSALDFLKHHLGAATPENPEIELLRLELAEMKEKYEAIVEENKKLKAKLAQYEPPQEEKRAE”: “not failed”. On to “MAIDAFALILAMLGLGLLFARLRVLPDNSADVLNRIVLYICLPASVLTYVPRLHLDASLGGVIATPWLLTAIIVPLLWGCSRLLRFGRAEYAALLMCVVFTNSSFIGFPMVRALIGDHALPYAVVYDQFGTFVLLSTFGLYVLARYSGDTPPTARLIVMRVLQFPPLWALLFALTLMPGQPPAWIGSGLKNLADAMLPLVMLSVGFSLQLRLPADELKPLAVGLVFKLLLMPVLALPLSWVLGLRGQMLQTNVLESAMPTMITAAALAISHRLAPRLAAAMVGYSILLSLLTLPAWAWLLARLVA”, for which the protein production result is given as “failed”. For “MAIERIQLHTHGDDRGLLISLEQQRNVPFEIRRVYYLFGTRHDVHRGQHAHRQLNQFAVALHGSVTILLDEGNGNGPSEVVLDDPSQGLLLGRMVWRDLYRFSADCVLMVLADQPYDPGDYILDYDQFVSEVRNGTALQARRLEA”, the protein production entry is listed as “failed”. Consider “MAIIPGVEQKPMSSNLESRIDQGTGREPADMVLKGGRFFDLVTGELVASDIAICGDTVVGTCGDYKGRHEIDISGKIVVPGFIDTHLHIESSLVTPHEFDRCVLPYGVTTAICDPHEIANVLGAEGLQFFLDSAMETIMDIRVQLSSCVPATHLETSGADLPIEKLLPFRNHPKVIGLAEFMNFPGVIHKDPVCMAKLEAFQGQHIDGHAPLLSGAALNGYLAAGIRTEHECTSAAEALEKIRKGMHILVREGSVSKDLHALMPIITERLSPYLALCTDDRNPLDIAEQGHLDYMIRTAIASGVEPLAIYRAASISAAKAFGLRDRGLVAPGWRADLVVIDTLQNCKASMVLSGGRLVDDALFATRKPVAPVGLDSVKARPVLASHFGVPVTEGETPVMGVLPGKIITEHRRYKLPTDGNQTTVDLENDIIKVAVIERHGKNGNHANGFVQGFGLKKGAIASTVGHDSHNICVVGVSEDDMALAANRLGDIKGGFVVVEDGRVTGEIALPVAGLMSLEPYETVRDTLHTLRKAAYALGTTLEEPFLQVAFLPLPVIPHLKISDMGMVDVDRFALI”, for which the protein production result was “failed”.

For the sequence “MAIKLSSIDQFEQVIEENKYVFVLKHSETCPISANAYDQFNKFLYERDMDGYYLIVQQERDLSDYIAKKTNVKHESPQAFYFVNGEMVWNRDHGDINVSSLAQAEE”, the protein production entry is on record as “not failed”. “MAILEYIMLLFIGLIAGTVGSLVGLGGGIIIVPLLIGLHSLSPQLAVGTSMVTVVFTGLSSTLTYMKHKRVDYKSGLILFIGSGPGGIIGSWANKFLNQDTFSLYFGIFLIFVSILLMLRDKLKPLSLSNTSVIKRSFTDNDGNTVHYQFPPFLAIFIAFIVGFISGLFGIGGGALLVPAMMLLFAFPAHIAVATSMFIVFLSAIVSSATHISLGNVSWIYALILIPGAWIGGKIGAYINTKLSGNAVINLLRITLIILGTRLIIISLL”: the protein production entry is “failed”.

On to “MAILFAVVARGTTILAKHAWCGGNFLEVTEQILAKIPSENNKLTYSHGNYLFHYICQDRIVYLCITDDDFERSRAFNFLNEIKKRFQTTYGSRAQTAPPYAMNSEFSSVLAAQLKHHS”, for which the protein production result is listed as “not failed”.

As to “MAIMASRKHLKRFKSPVHWPIHPKEYKWTVKPSPGPHAIENSLPLMIIVRDILKVADNAREARKIINSGEVLVDGRPRKNYKFPVGFMDVVSIPRTGDVYRVLPDERGRLVLHPIDEENAGFKLCKIVNKTTIKGGRTQLNLHDGRNYLSDDEFRVGDVVKLSIPEQEILERIPFEKDSLGLVTGGRHTGEIGKIKKINITRSSMPNTAVIETGAGKTFLTLKDYVFVIGKDESVISLPGGKLEHHHHHH”, the protein production entry is recorded as “failed”. As for “MAINLTPLIGFLPEFIISAIISGFLFQAITNDKTFVRPIIGGKKPEQKSILKKVSSRRKPVDMKEYERMKNKTRYQALLFNSNMHIISSSALTVSAWILLIYAMIGIGKSSIFMPTFGFKINFIVYALLVIIFSVAMISSFSQVVRLREIYRIIASVFAVLSVVIFFEIPAMKWLFYIFPKVIVSYIFIYFAGLFILFLCYSLWWKLAPKITFYVSFYSSILTYFAIVSLMIYNSIPKL”, the protein production entry is “failed”. As for “MAINRSSDHESDENTRLYHPYQNYQVPIKSQYLYKLPTSPEFLFTEESLKQRRSWGENLTFYTGTGYLAGSVAGASAGIFSGIKSFENGDTTKLKINRILNSSGQAGRTWGNRVGIVGLIYAGIESGVVAVTDKDDVWTSVVAGLGTGAVFRAARGVRSAAVAGAFGGIAAGAVVAGKQVFKRDPERGSITLDP”, the protein production entry is “failed”. As for “MAIQGSRTEGLGGYTFDDLAVVMGTYNEEEAIGTVLDDIATVTDGRAEVICVDGSSDRTPEIARDHGATVIEQEPQGYGVAVREAVLTPDRPVVVTTDCDDTYPMERLPDFLAEINDGADVVSGDRLYYGAEQMPAMNKLGNELFALLASVLMGKRVHDTTTGMRAYRREVLQKIVWTENTGLSAELLMRPLMRGYDVRERPIEYDERKGETKLDPFSGGAAIAKSIVRVALEERFRLEHHHHHH”, the protein production result is “not failed”.
